From PMC2809015

Tests used:
[1] = molecular target: IscA, FeS cluster assembly scaffold protein (E. coli) (UniProt P0AAC8)
[2] = molecular target: IscU, FeS cluster assembly scaffold protein (E. coli) (UniProt P0ACD4)
[3] = molecular target: HscB, co-chaperone of HscA (E. coli) (UniProt P0A6L9)
IscU (Escherichia coli) = IscU (Escherichia coli) (UniProt P0ACD4); assay: surface plasmon resonance; details: cited from earlier work
Sequence of IscU (Escherichia coli) (P0ACD4 whole entry): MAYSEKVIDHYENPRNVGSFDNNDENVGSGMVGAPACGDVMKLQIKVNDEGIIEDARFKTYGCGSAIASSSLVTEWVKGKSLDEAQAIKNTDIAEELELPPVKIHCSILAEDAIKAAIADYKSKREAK

Sequence of Biotin synthase (BioB), cluster state not stated for the experiment (P12996 whole entry): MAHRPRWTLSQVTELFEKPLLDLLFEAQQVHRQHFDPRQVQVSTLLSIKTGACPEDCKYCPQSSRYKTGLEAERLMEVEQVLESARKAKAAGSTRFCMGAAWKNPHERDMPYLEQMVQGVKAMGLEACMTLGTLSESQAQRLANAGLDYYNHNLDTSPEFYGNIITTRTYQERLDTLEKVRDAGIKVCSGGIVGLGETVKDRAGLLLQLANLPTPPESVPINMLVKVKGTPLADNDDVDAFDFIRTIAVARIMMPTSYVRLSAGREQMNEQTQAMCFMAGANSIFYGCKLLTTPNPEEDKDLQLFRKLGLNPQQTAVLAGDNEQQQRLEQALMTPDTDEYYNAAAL
Sequence of IscA, FeS cluster assembly scaffold protein (E. coli) (P0AAC8 whole entry): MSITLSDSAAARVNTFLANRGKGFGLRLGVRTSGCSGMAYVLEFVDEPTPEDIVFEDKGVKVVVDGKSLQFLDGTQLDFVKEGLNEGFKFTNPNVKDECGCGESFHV
Sequence of HscB, co-chaperone of HscA (E. coli) (P0A6L9 whole entry): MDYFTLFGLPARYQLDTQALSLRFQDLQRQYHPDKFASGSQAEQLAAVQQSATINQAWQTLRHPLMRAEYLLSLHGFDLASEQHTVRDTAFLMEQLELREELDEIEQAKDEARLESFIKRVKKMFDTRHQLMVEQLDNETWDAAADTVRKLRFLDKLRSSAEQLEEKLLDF
Sequence of IscU, FeS cluster assembly scaffold protein (E. coli) (P0ACD4 whole entry): as the sequence (P0ACD4 whole entry) above
Sequence of HscA (P0A6Z1 whole entry): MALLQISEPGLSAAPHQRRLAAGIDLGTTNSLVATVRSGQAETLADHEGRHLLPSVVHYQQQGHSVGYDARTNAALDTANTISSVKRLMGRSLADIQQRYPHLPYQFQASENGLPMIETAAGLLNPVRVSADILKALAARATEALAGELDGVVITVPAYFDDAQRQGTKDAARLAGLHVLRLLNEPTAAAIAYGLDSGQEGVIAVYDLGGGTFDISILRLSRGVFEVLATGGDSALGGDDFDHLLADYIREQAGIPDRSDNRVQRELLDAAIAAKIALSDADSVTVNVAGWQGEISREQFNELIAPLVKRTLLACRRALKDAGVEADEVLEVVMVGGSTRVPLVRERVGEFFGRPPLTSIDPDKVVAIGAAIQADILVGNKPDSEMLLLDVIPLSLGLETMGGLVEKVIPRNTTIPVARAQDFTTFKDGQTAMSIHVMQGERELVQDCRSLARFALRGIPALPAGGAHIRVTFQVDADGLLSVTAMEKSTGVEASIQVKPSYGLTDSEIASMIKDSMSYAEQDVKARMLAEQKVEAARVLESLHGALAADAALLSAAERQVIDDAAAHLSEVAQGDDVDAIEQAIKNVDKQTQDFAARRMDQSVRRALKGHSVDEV

| Kd [1] | Kd [2] | Kd [3] | Substance | Kd (IscU (Escherichia coli)) |
| --- | --- | --- | --- | --- |
| > 10 µM | > 10 µM | > 10 µM | Biotin synthase (BioB), cluster state not stated for the experiment (from UniProt P12996 1-346) (enzyme) |  |
|  |  |  | HscA (from UniProt P0A6Z1) | 9.3 µM |
